Assay results from paper PMC4822050, “Hemi-methylated DNA opens a closed conformation of UHRF1 to facilitate its histone recognition” (Nature Communications, 2016).

Biological target: T1, UHRF1^D334A&Δ627–674 (human, UniProt Q96T88 1-793, D334A | Δ627–674)
T1 construct: human UHRF1 (1–793)
T1 sequence (looked up): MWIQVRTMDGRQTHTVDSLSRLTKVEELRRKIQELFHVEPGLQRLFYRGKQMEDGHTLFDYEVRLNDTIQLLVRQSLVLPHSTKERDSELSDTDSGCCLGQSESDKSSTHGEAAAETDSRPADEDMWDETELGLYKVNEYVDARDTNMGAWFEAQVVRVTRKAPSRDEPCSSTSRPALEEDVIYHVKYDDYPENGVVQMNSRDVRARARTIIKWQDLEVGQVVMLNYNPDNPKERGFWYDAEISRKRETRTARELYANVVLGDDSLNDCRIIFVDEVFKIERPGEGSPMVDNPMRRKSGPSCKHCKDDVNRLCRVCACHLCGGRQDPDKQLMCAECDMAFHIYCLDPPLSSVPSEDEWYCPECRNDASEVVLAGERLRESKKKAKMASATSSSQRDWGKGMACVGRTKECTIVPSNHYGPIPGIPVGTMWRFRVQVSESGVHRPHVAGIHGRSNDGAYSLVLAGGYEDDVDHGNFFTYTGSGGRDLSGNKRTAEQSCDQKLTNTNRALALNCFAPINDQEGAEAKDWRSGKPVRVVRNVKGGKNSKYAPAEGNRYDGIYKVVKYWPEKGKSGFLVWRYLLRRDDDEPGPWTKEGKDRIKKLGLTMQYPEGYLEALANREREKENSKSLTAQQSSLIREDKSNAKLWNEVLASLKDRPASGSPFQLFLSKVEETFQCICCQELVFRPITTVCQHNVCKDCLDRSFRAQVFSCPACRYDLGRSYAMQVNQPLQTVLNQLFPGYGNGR
Assay: ITC; 0.05 mM protein in the cell, 0.5 mM protein or peptide in the syringe, iTC200, 18 °C, 10 mM HEPES pH 8.0, 100 mM NaCl
Conditions: both partners purified

Which Kd does the source give for ARTKQTARKSTGGKAPR (peptide, UniProt P68431 2-18, looked up, trimethyl-lysine at K9, histone H3, residues 1–17) [H3K9me3 peptide (1–17)] here?
Its Kd is 8.69 µM.
